How the values were obtained:
[1] = expressed in yeast
[2] = 25-hydroxylation activity of 1α-hydroxyvitamin D3 in yeast subcellular fractions with added ADX, ADR and NADPH; assay type: biochemical; conditions: expressed in yeast
Procedure: (§1) A mitochondrial fraction prepared from the strain AH22/pAC25 and a microsomal fraction prepared from the strain AH22/pAMS25 were used for the measurement of hydroxylation activities. Subcellular fractionation was prepared from a transformant yeast strain according to the following method. About 4×10^10 cells were collected from a culture containing about 2×10^7 cells/ml, suspended in Zymolyase solution [10 mM Tris-HCl (pH 7.5), 2.0M sorbitol, 0.1 mM dithiothreitol, 0.1 mM EDTA, 0.3 mg/ml Zymolyase 100T] and incubated at 30° C. for 1 hour to prepare spheroplasts. The spheroplasts were suspended in a sonication buffer (10 mM Tris-HCl (pH 7.5), 0.65M sorbitol, 0.1 mM dithiothreitol, 0.1 mM EDTA, 1 μg/ml leupeptin, 1 μg/ml pepstatin) and homogenized with a Teflon homogenizer to disrupt the cells.
(§2) Precipitate 1 was removed by centrifugation at 3000×g for 5 minutes to give supernatant 1'. Precipitate 1 was resuspended in a sonication buffer, homogenized again, centrifuged at 3000×g for 5 minutes to give precipitate 1 (undisrupted cells and nucleus fractions) and supernatant 1". […]
(§3) Reaction systems (2 ml) shown in the following but NADPH were mixed and preincubated at 37° C. for 5 minutes, and reaction was initiated by the addition of NADPH. […] The benzene layer obtained by centrifugation was dried completely and analyzed by HPLC under the condition listed below. […]

[3] = 27-hydroxylation activity of THC in yeast subcellular fractions with added ADX, ADR and NADPH; assay type: biochemical; conditions: expressed in yeast
Procedure: as §1, §2, §3

B1: P450c25: rat liver mitochondrial P450c25 expressed in yeast (protein, UniProt P17178 33-533, looked up)
Sterol 26-hydroxylase, …: AIPAALRDHESTEGPGTGQDRPRLRSLAELPGPGTLRFLFQLFLRGYVLHLHELQALNKAKYGPMWTTTFGTRTNVNLASAPLLEQVMRQEGKYPIRDSMEQWKEHRDHKGLSYGIFITQGQQWYHLRHSLNQRMLKPAEAALYTDALNEVISDFIARLDQVRTESASGDQVPDVAHLLYHLALEAICYILFEKRVGCLEPSIPEDTATFIRSVGLMFKNSVYVTFLPKWSRPLLPFWKRYMNNWDNIFSFGEKMIHQKVQEIEAQLQAAGPDGVQVSGYLHFLLTKELLSPQETVGTFPELILAGVDTTSNTLTWALYHLSKNPEIQEALHKEVTGVVPFGKVPQNKDFAHMPLLKAVIKETLRLYPVVPTNSRIITEKETEINGFLFPKNTQFVLCHYVVSRDPSVFPEPESFQPHRWLRKREDDNSGIQHPFGSVPFGYGVRSCLGRRIAELEMQLLLSRLIQKYEVVLSPGMGEVKSVSRIVLVPSKKVSLRFLQRQ
exhibited hydroxylation activities: hydroxylation activity to vitamin D3 [1] | hydroxylation activity to 1α-hydroxyvitamin D3 [2] | hydroxylation activity to THC [3]

From patent US5668000A, “Mitochondrial P450” (Sumitomo Chemical Company, Limited, priority 1990, dated 1997)
